This is an account of results in article PMC11276004.

The target in test [1] is YPet (Yellow fluorescent Protein for energy transfer). In words: SEC-SAXS; synchrotron SAXS in line with SEC; 260 μM YPet or 230 μM mCLIFY injected, PBS, room temperature; SVD-EFA, mass from Qr and Porod.
Test [2] shares this target. Kind of test: SEC-MALS; in line with SAXS; 100 μl of 260 μM YPet or 230 μM mCLIFY injected, Shodex 804 column, PBS, room temperature; 53 μM (YPet) and 48 μM (mCLIFY) at peak. Background: SEC sorts molecules by how far they enter the pores of the column.
For test [3] the target is unchanged. In words: AUC; sedimentation velocity on cleared bacterial lysates of expressing cultures, detection at 515 nm; 4.6 μM YPet in 14.3 mg/mL lysate, 6.2 μM mCLIFY in 13.7 mg/ml lysate.
The target is the same in test [4]. Kind of test: AUC; sedimentation velocity, purified protein, 20 °C, PBS, 2-40 μM monomer, 40,000 rpm; c(s) fits in SEDFIT; monomer-dimer association model in SEDPHAT; constant is of dimer to monomers.

As to “YPet (Yellow fluorescent Protein for energy transfer)”, the stoichiometry N in test [1], in test [2], in test [3] and in test [4] was 2 in each case. This substance displayed a Kd in test [4] of 3.4 µM.

Broadly, the stoichiometry N is the number of molecules, sites or subunits per partner or assembly. The Kd is a measure of binding affinity in units of concentration.
